Data on eight molecules can be found in patent US20260234247A1 (published 2026).

Experiment [1] concerns the target T1, human LILRA1 (human, UniProt O75019 17-461, limits assumed).
T1 construct: Bought protein; also called hLILRA1
The experiment is described as follows: ELISA, 200 nM antibody, OD450; + = 2-fold over ISO. (In general: In an ELISA, binding on a coated surface is turned into a signal by an enzyme label.)
T1 sequence (O75019 17-461 limits assumed): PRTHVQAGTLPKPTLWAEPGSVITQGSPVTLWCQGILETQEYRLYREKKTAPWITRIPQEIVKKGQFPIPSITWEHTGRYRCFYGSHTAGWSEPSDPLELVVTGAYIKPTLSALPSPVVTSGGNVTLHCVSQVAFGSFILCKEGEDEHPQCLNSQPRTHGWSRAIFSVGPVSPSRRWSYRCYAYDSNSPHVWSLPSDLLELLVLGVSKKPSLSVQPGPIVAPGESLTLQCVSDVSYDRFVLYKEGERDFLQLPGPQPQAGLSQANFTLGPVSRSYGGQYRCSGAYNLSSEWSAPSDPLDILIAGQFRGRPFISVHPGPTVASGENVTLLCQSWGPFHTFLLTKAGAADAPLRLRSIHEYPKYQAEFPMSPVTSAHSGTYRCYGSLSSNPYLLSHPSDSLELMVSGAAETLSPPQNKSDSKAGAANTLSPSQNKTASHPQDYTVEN

Experiment [2] addresses T2, human LILRA2 (human, UniProt Q8N149 24-449).
T2 construct: Bought protein; also called hLILRA2
The experiment is described as follows: ELISA, 200 nM antibody, OD450; + = 2-fold over ISO.
T2 sequence (Q8N149 24-449 limits assumed): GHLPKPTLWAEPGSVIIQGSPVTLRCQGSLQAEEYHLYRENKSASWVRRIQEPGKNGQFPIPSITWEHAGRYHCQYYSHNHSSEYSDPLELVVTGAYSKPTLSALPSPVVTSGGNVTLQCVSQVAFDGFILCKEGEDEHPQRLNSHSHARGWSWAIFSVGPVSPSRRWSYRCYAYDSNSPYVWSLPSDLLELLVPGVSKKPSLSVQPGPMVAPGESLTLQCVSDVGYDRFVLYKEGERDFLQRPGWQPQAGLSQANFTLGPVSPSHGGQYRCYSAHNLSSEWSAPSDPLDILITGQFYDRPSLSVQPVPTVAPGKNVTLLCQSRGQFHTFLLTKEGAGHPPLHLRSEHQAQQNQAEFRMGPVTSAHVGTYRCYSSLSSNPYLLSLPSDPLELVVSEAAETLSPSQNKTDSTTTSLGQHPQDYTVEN

The target of experiment [3] is T3, Biotinylated LILRB1 (UniProt Q8NHL6 24-458, limits assumed, biotinylated (sites not given)). The experiment is described as follows: epitope binning ELISA, coated 1 ug/ml; competitor LK-RB1-33 at 20 ug/ml.
T3 sequence (Q8NHL6 24-458 limits assumed): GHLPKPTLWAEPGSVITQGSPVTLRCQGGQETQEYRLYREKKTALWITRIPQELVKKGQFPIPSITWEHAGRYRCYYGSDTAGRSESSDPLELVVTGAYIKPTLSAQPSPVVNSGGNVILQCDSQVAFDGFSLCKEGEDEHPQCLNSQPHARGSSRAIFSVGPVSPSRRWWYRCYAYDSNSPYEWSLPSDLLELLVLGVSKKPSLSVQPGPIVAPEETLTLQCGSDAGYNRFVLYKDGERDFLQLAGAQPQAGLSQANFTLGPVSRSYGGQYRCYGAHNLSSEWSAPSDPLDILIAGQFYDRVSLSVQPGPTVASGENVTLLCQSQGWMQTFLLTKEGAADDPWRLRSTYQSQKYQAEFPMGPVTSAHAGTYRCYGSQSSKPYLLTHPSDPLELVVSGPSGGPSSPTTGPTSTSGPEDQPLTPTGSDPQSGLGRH
Experiment [4] concerns the target T3, Biotinylated LILRB1. The experiment is described as follows: epitope binning ELISA, coated 1 ug/ml; competitor hz73D1.v1 at 20 ug/ml.
Experiment [5] has as its target T3, Biotinylated LILRB1. The experiment is described as follows: epitope binning ELISA, coated 1 ug/ml; competitor LK-RB1-16 at 20 ug/ml.
For experiment [6], the target named is T3, Biotinylated LILRB1. The experiment is described as follows: epitope binning ELISA, coated 1 ug/ml; competitor 15G8 at 20 ug/ml.
In experiment [7] the target is T3, Biotinylated LILRB1. The experiment is described as follows: epitope binning ELISA, coated 1 ug/ml; competitor LK-RB1-47 at 20 ug/ml.
Experiment [8] concerns the target T3, Biotinylated LILRB1. The experiment is described as follows: epitope binning ELISA, coated 1 ug/ml; competitor LK-RB1-9 at 20 ug/ml.
The target of experiment [9] is T4, human LILRA2 (human, UniProt Q8N149 24-449, limits assumed).
T4 construct: also called hLILRA2
T4 sequence (Q8N149 24-449 limits assumed): as the sequence (Q8N149 24-449 limits assumed) above
The experiment is described as follows: Octet off-rate ranking.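 Further: antibody dissociation rate constants against cynomolgus LILRB2 plus human LILRB1, LILRB2, LILRA1 and LILRA2, measured on an Octet instrument to rank binding.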 Background: BLI is a label-free optical method that tracks binding on a fibre tip over time.

For the next experiment, the target named is T5, human LILRB1 (human, UniProt Q8NHL6 24-458, limits assumed).
T5 construct: also called hLILRB1
T5 sequence (Q8NHL6 24-458 limits assumed): as the sequence (Q8NHL6 24-458 limits assumed) above
The experiment is described as follows: Octet off-rate ranking.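 Further: antibody dissociation rate constants against cynomolgus LILRB2 plus human LILRB1, LILRB2, LILRA1 and LILRA2, measured on an Octet instrument to rank binding.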

In experiment [10] the target is T6, human LILRA1 (human, UniProt O75019 17-461, limits assumed).
T6 construct: also called hLILRA1
The experiment is described as follows: Octet off-rate ranking.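 Further: antibody dissociation rate constants against cynomolgus LILRB2 plus human LILRB1, LILRB2, LILRA1 and LILRA2, measured on an Octet instrument to rank binding.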
T6 sequence (O75019 17-461 limits assumed): as the sequence (O75019 17-461 limits assumed) above

For experiment [11], the target named is T3, Biotinylated LILRB1. The experiment is described as follows: epitope binning ELISA, coated 1 ug/ml; competitor LK-RB1-31 at 20 ug/ml.
For experiment [12], the target named is T3, Biotinylated LILRB1. The experiment is described as follows: epitope binning ELISA, coated 1 ug/ml; competitor LK-RB1-12 at 20 ug/ml.
The target in the next experiment is T7, human LILRB3 (human, UniProt O75022 24-443).
T7 construct: bought protein coated for ELISA; also called hLILRB3
The experiment is described as follows: ELISA, OD450, antibody at 200 nM; + = 2-fold over ISO.

Experiment [13] concerns the target T8, human LILRA2 (human, UniProt Q8N149 24-449).
T8 construct: bought protein coated for ELISA; also called hLILRA2
Described as above.
T8 sequence (Q8N149 24-449 limits assumed): as the sequence (Q8N149 24-449 limits assumed) above

The target in experiment [14] is T9, human LILRB4 (human, UniProt Q8NHJ6 22-259).
T9 construct: Bought protein; also called hLILRB4
The experiment is described as follows: ELISA, antibody at 200 nM, OD450; + = 2-fold over ISO.

Experiment [15] has as its target T10, human LILRA1 (human, UniProt O75019 17-461, limits assumed).
T10 construct: Bought protein; also called hLILRA1
The description is as above.
T10 sequence (O75019 17-461 limits assumed): as the sequence (O75019 17-461 limits assumed) above

A further experiment has as its target T11, human LILRA5 (human, UniProt A6NI73 42-268, limits assumed).
T11 construct: Bought protein; also called hLILRA5
The description is as above.

The target in the next experiment is T12, human LILRA3 (human, UniProt Q8N6C8 24-439).
T12 construct: Bought protein; also called hLILRA3
T12 sequence (Q8N6C8 24-439 limits assumed): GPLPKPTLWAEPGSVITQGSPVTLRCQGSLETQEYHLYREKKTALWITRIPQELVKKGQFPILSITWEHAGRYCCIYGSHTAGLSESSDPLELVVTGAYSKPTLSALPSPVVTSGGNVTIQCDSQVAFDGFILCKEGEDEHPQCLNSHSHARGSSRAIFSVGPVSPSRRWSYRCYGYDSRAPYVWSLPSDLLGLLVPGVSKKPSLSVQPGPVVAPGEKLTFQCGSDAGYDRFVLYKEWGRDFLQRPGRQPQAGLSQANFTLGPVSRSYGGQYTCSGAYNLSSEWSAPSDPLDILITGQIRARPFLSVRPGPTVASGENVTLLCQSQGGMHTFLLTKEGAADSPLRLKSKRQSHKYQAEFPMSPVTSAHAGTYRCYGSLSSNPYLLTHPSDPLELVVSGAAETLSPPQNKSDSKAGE
Described as above.

In experiment [16] the target is T13, human LILRB1 expressed on CHOK1 cells (human, UniProt Q8NHL6 24-650).
T13 construct: whole, on cells; also called CHOK1-hLILRB1; CHOK1-LILRB1
T13 sequence (Q8NHL6 24-650): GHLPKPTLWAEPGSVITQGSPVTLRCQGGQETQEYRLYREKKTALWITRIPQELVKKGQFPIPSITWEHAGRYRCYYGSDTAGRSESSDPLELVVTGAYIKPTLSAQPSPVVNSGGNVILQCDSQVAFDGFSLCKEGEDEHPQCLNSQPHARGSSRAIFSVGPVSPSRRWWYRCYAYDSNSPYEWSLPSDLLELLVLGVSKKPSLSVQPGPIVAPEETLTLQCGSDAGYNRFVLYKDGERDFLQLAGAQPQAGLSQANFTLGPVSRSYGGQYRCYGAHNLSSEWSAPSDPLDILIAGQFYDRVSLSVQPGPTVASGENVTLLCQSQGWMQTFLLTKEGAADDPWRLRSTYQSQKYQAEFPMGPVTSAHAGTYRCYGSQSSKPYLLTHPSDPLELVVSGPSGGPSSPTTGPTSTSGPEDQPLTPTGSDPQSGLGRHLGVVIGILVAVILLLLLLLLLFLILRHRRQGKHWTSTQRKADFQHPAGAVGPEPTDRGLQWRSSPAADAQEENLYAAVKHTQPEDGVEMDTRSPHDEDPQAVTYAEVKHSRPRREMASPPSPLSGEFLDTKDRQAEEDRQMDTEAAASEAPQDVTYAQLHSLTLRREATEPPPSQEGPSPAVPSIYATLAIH
The experiment is described as follows: cell based RBA on CHOK1-hLILRB1 cells, flow cytometry; competitor HLA-G.

In experiment [17] the target is T13, human LILRB1 expressed on CHOK1 cells. The experiment is described as follows: flow cytometry (FACS) binding to CHOK1-hLILRB1 cells.
For experiment [18], the target named is T14, human LILRB2 expressed on CHOK1 cells (human, UniProt Q8N423 22-597).
T14 construct: whole, on cells; also called CHOK1-hLILRB2; CHOK1-LILRB2
T14 sequence (Q8N423 22-597): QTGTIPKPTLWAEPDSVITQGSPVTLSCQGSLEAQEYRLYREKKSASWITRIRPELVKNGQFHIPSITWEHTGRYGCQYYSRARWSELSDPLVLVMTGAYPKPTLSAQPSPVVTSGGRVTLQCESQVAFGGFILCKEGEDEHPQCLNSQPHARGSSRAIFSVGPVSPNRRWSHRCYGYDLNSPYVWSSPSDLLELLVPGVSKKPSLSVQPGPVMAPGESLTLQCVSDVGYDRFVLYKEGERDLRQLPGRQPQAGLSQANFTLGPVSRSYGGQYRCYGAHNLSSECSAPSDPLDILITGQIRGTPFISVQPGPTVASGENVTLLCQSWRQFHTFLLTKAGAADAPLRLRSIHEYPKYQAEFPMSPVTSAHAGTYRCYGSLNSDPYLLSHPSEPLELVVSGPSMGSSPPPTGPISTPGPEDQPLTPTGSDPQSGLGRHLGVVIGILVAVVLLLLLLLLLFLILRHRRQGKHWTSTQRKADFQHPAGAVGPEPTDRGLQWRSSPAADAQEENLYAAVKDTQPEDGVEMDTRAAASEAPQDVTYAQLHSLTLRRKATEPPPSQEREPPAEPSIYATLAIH
The experiment is described as follows: cell based RBA on CHOK1-hLILRB2 cells, flow cytometry; competitor HLA-G. A general note: A flow cytometer gives signals particle by particle.

For experiment [19], the target named is T14, human LILRB2 expressed on CHOK1 cells. The experiment is described as follows: flow cytometry (FACS) binding to CHOK1-hLILRB2 cells.
For experiment [20], the target named is T15, human LILRB2 protein (Octet analyte) (human, UniProt Q8N423 22-460, limits assumed).
T15 construct: The construct used in the Octet assay is not described; also called hLILRB2
T15 sequence (Q8N423 22-460 limits assumed): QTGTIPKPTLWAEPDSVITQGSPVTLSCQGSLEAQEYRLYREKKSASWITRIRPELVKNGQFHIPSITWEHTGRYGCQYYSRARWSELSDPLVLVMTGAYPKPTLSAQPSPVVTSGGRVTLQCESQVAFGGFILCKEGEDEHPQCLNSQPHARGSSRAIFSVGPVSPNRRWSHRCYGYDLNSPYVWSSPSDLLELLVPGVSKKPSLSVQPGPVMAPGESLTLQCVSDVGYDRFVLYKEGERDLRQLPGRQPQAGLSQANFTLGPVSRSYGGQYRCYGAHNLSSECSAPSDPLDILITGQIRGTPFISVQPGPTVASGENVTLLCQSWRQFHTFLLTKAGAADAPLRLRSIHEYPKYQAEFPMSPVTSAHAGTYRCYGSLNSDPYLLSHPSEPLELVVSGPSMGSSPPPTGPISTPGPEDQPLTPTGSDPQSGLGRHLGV
The experiment is described as follows: Octet (BLI), off rate ranking, kdis.

In experiment [21] the target is T16, human LILRB1 protein (Octet analyte) (human, UniProt Q8NHL6 24-458, limits assumed).
T16 construct: The construct used in the Octet assay is not described; also called hLILRB1
T16 sequence (Q8NHL6 24-458 limits assumed): as the sequence (Q8NHL6 24-458 limits assumed) above
The experiment is described as follows: Octet (BLI), off rate ranking, kdis.

The target in experiment [22] is T17, human LILRB4 (human, UniProt Q8NHJ6 22-259).
T17 construct: bought protein coated for ELISA; also called hLILRB4
The experiment is described as follows: ELISA, OD450, antibody at 200 nM; + = 2-fold over ISO.

The next experiment addresses T18, human LILRA4 (human, UniProt P59901 24-446).
T18 construct: bought protein coated for ELISA; also called hLILRA4
The experiment is described as above.

In general, koff refers to the first-order rate constant of dissociation. A higher koff goes with fast dissociation. Broadly, the EC50 is the concentration giving half of the maximal effect. High values mean a less potent agent, low ones a more potent agent.

B1: LK-RB2-41 (antibody, human IgG4 S228P, kappa, V domains shown)
VH: EVQLQLSGPELVKPGASVKMSCKASGYTFTDYNMHWVKQSHGKSLEWIGYINPNNGGTTYNQKFKGKATLTVNKSSSTAYMELRSLTSEDSAVYYCARAPYYGSSYLLAYWGQGTLVTVSA
VL: DIVMTQSHKFMSTSVGDRVSITCKASQDVSTAVAWYQQKPGQSPKLLIYSASYRYTGVPDRFTGSGSGTDFTFTISSVQAEDLAIYYCQQHYSIPWTFGGGTKLEIKR
With B1, the binding result with human LILRA1 [1] and with human LILRA2 [2] was “binds” each time.

B2: LK-RB1-9 (antibody, human IgG4 S228P, kappa, V domains shown)
VH: QIQLVQSGPELKKPGETVKISCTASGYTFTTYGMSWVKQAPGKGLKWMGWINTYSGVPTYADDFKGRFAFSLETSASTAYLEINNVKNEDTATYFCARRRRTYHGYLCFDYWGQGTTLTVSS
VL: DIQMTQSPVSLSASVGETVTITCETSENIYGALNWYQRKQGKSPQLLIYGATNLADGMSSRFSGSGSGRQYSLEISSLHPDDVASYYCQNVLNTPWTFGGGTKLEIKR
Regarding B2, the Inhibition % with Biotinylated LILRB1 [3] was determined as 67.4%; with Biotinylated LILRB1 [4], 88.1%; in the experiment with Biotinylated LILRB1 [5], 21.9%; in the experiment with Biotinylated LILRB1 [6], 48.6%; in the experiment with Biotinylated LILRB1 [7], 89.1%; in the experiment with Biotinylated LILRB1 [8], 73.9%. The Inhibition % was 10.2% with Biotinylated LILRB1 [11] and 92.1% with Biotinylated LILRB1 [12]. Besides, the koff with human LILRA2 [9] worked out at 0.000885 s⁻¹; with human LILRB1, 0.000162 s⁻¹; with human LILRA1 [10] it was 0.000155 s⁻¹.

B3: LK-RB1-5 (antibody, human IgG4 S228P, kappa, V domains shown)
VH: QVQLQQPGAELVKPGASVKLSCKASGYTFTDFWIHWVKQRPGQGLEWIGMIHPNSGSTNFNEKFRAKATLTVDKSSSTAYMRLSSLTSEDSAVYYCARSGDGYSNPMDYWGQGTSVTVSS
VL: QIVLSQSPAILSASPGEKVTLTCRASSSVSYMHWYQQKPGSSPKPWIYATSNLASGVPVRFSGSGSGTSYSLTISRMQTEDAATYYCQQWRRSPYTFGGGTKLEIKR
notes: anti-LILRB1 antibody
As for B3, the binding result with human LILRB3 and with human LILRA2 [13] was “binds” throughout.

B4: LK-RB2-8 (antibody, human IgG4 S228P, kappa, V domains shown)
VH: QIQLVQSGPELKKPGETVKISCKASGYSFASYGMGWVKQAPGKGLKWLGWINTHSGVPTYADDFKGRFAFSLETSASTAYLQINNLKNEDTATYFCAHYGRPWFPYWGQGTLVTVSA
VL: DIQMTQSPASLSASVGETVTITCRTSENIYSYLAWYQQKQGKSPQLLVYNAKSLAEGVPSRFSGSGSGTQFSLRINSLQPEDFGTYYCQQHYETPLTFGAGTKLELKR
Consider B4, for which the binding result in the experiment with human LILRB4 [14], in the experiment with human LILRA1 [15], with human LILRA5 and with human LILRA3 was “binds” each time.

B5: LK-RBi-05 (bispecific antibody, human IgG4 S228P, kappa)
heavy: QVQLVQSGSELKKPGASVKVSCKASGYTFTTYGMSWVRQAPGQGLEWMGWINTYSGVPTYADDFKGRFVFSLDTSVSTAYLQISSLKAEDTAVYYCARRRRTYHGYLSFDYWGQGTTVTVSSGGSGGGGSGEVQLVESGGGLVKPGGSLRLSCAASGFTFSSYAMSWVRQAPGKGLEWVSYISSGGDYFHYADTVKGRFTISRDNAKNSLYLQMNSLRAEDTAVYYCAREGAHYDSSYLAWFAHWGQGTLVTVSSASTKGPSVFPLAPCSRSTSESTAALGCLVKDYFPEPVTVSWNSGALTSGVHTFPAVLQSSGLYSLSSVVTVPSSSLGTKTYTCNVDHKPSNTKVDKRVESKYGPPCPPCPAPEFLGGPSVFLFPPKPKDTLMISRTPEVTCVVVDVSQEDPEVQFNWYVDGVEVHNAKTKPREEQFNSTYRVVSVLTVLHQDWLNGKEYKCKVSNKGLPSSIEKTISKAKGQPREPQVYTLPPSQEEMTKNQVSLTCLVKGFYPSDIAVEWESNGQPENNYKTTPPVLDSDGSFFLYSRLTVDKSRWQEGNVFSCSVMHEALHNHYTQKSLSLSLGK
light: DIQMTQSPSSLSASVGDRVTITCETSENIYGALNWYQQKPGKAPKLLIYGATNLAEGVPSRFSGSGSGTDFTFTISSLQPEDIATYYCQNVLNTPWTFGGGTKLEIKGGSGGGGSGDIQMTQSPSSVSASVGDRVTITCRASENIYSNLAWYQQKPGKAPKLLIYAATNLAEGVPSRFSGSGSGTDYTLTISSLQPEDFATYYCQQFWDNPLTFGQGTKLEIKRTVAAPSVFIFPPSDEQLKSGTASVVCLLNNFYPREAKVQWKVDNALQSGNSQESVTEQDSKDSTYSLSSTLTLSKADYEKHKVYACEVTHQGLSSPVTKSFNRGEC
As for B5, the EC50 in experiment [16] is 4.2 µg/mL; in [17], 2.32 nM; in experiment [18] it was 0.43 µg/mL; in [19], 0.73 nM. Also, the koff in [20] turned out to be 8.24e-06 s⁻¹; in experiment [21], 0.00021 s⁻¹.

B6: LK-RBi-08 (bispecific antibody, human IgG4 S228P, kappa)
heavy: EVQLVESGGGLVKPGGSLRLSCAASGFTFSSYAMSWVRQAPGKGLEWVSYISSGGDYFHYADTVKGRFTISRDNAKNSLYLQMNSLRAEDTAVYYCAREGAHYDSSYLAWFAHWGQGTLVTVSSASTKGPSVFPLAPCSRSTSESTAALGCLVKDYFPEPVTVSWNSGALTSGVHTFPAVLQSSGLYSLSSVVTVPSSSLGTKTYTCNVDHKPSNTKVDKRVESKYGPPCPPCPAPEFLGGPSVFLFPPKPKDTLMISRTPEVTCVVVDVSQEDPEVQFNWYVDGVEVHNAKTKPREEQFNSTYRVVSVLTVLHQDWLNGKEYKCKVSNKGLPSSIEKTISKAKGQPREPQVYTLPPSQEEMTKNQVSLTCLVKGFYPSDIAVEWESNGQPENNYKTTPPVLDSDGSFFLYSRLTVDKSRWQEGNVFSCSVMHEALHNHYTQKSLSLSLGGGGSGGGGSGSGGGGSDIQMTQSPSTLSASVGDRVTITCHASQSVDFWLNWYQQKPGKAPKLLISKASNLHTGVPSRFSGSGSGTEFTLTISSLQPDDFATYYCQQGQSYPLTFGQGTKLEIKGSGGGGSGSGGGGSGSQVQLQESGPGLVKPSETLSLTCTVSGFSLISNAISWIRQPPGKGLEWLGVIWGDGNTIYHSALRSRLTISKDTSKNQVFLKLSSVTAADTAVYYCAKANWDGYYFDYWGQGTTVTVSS
light: DIQMTQSPSSVSASVGDRVTITCRASENIYSNLAWYQQKPGKAPKLLIYAATNLAEGVPSRFSGSGSGTDYTLTISSLQPEDFATYYCQQFWDNPLTFGQGTKLEIKRTVAAPSVFIFPPSDEQLKSGTASVVCLLNNFYPREAKVQWKVDNALQSGNSQESVTEQDSKDSTYSLSSTLTLSKADYEKHKVYACEVTHQGLSSPVTKSFNRGEC
Regarding B6, the EC50 was determined as 6.03 µg/mL in [16], 2.66 nM in [17], 0.28 µg/mL in experiment [18] and 0.37 nM in [19]. Moreover, the koff came to 5.68e-05 s⁻¹ in [20] and 0.000166 s⁻¹ in experiment [21].

B7: LK-RB1-1 (antibody, human IgG4 S228P, kappa, V domains shown)
VH: QIQLVQSGPELKKPGETVKISCKASGYSFTNFGMSWVKQAPGKALKWMGWINTYSGVPTYADDFKGRFAFSLETSANTAYLQINNLKNEDSATYFCARRRRTFDGYLCFDYWGQGATLTVSS
VL: QLVLTQSSSASFSLGASAKLTCTLSSQHSTYSIDWYQQQPLKPPKYVMELKTDGSHRTGDGIPDRFSGSSSGADRYLSISNIQPEDEAIYICGVGDTIKEQFVYVFGGGTKVTVLR
notes: anti-LILRB1 antibody
As for B7, the binding result with human LILRB4 [22] and with human LILRA4 was “binds” in each case.

B8: 15G8 (antibody, human IgG4 S228P, kappa, V domains shown)
VH: DVQLQGSGPGLVKPSETLSLTCSVTGYSITSGYYWNWIRQFPGKKLEWMGYISYDGSNNYNPSLKNRITISRDTSKNQFSLKLNSVTAADTATYYCAHGYSYYYAMDAWGQGTSVTVSS
VL: DIQMTQSPSSLSASVGDRVTITCRTSQDISNYLNWYQQKPGKAVKLLISYTSRLHSGVPSRFSGSGSGTDYTLTISSLQPEDFATYYCQQGNTLPTFGQGTKLEIKR
Take B8: the Inhibition % with Biotinylated LILRB1 [3] was 90.5%; with Biotinylated LILRB1 [4] it was -0.56%; with Biotinylated LILRB1 [5] it was -0.72%; in the experiment with Biotinylated LILRB1 [6], 73%; with Biotinylated LILRB1 [7], 13.5%; in the experiment with Biotinylated LILRB1 [8], 92.1%. The Inhibition % in the experiment with Biotinylated LILRB1 [11] was -0.67%; in the experiment with Biotinylated LILRB1 [12] it was 3.58%. Further, the koff with human LILRA2 [9] turned out to be 0.00117 s⁻¹; in the experiment with human LILRB1, 0.00389 s⁻¹; with human LILRA1 [10] it was 0.000278 s⁻¹.
